B1: Keratin, type II cytoskeletal 6A (Homo sapiens), P02538 (parent)
chain: MASTSTTIRSHSSSRRGFSANSARLPGVSRSGFSSVSVSRSRGSGGLGGACGGAGFGSRSLYGLGGSKRISIGGGSCAISGGYGSRAGGSYGFGGAGSGFGFGGGAGIGFGLGGGAGLAGGFGGPGFPVCPPGGIQEVTVNQSLLTPLNLQIDPTIQRVRAEEREQIKTLNNKFASFIDKVRFLEQQNKVLETKWTLLQEQGTKTVRQNLEPLFEQYINNLRRQLDSIVGERGRLDSELRGMQDLVEDFKNKYEDEINKRTAAENEFVTLKKDVDAAYMNKVELQAKADTLTDEINFLRALYDAELSQMQTHISDTSVVLSMDNNRNLDLDSIIAEVKAQYEEIAQRSRAEAESWYQTKYEELQVTAGRHGDDLRNTKQEIAEINRMIQRLRSEIDHVKKQCANLQAAIADAEQRGEMALKDAKNKLEGLEDALQKAKQDLARLLKEYQELMNVKLALDVEIATYRKLLEGEECRLNGEGVGQVNISVVQSTVSSGYGGASGVGSGLGLGGGSSYSYGSGLGVGGGFSSSSGRAIGGGLSSVGGGSSTIKYTTTSSSSRKSYKH
partner: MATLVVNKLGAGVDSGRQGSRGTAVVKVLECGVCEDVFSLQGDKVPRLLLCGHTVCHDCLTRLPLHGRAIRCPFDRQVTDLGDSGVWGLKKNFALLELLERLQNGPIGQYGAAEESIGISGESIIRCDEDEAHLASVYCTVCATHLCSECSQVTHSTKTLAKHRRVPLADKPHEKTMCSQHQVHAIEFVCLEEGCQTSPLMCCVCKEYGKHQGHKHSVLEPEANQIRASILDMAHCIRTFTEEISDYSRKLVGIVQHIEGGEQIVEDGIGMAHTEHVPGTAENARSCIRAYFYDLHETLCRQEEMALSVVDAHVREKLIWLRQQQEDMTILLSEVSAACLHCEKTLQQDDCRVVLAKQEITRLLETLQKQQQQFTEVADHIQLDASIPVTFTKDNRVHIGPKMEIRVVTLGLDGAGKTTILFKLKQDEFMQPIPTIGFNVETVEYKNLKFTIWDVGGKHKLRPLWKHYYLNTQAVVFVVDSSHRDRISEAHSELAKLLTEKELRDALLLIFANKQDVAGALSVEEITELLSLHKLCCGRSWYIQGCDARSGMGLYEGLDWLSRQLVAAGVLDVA
B2: Progranulin (Homo sapiens), P28799 (parent)
chain: MWTLVSWVALTAGLVAGTRCPDGQFCPVACCLDPGGASYSCCRPLLDKWPTTLSRHLGGPCQVDAHCSAGHSCIFTVSGTSSCCPFPEAVACGDGHHCCPRGFHCSADGRSCFQRSGNNSVGAIQCPDSQFECPDFSTCCVMVDGSWGCCPMPQASCCEDRVHCCPHGAFCDLVHTRCITPTGTHPLAKKLPAQRTNRAVALSSSVMCPDARSRCPDGSTCCELPSGKYGCCPMPNATCCSDHLHCCPQDTVCDLIQSKCLSKENATTDLLTKLPAHTVGDVKCDMEVSCPDGYTCCRLQSGAWGCCPFTQAVCCEDHIHCCPAGFTCDTQKGTCEQGPHQVPWMEKAPAHLSLPDPQALKRDVPCDNVSSCPSSDTCCQLTSGEWGCCPIPEAVCCSDHQHCCPQGYTCVAEGQCQRGSEIVAGLEKMPARRASLSHPRDIGCDQHTSCPVGQTCCPSLGGSWACCQLPHAVCCEDRQHCCPAGYTCNVKARSCEKEVVSAQPATFLARSPHVGVKDVECGEGHFCHDNQTCCRDNRQGWACCPYRQGVCCADRRHCCPAGFRCAARGTKCLRREAPRWDAPLRDPALRQLL
partner: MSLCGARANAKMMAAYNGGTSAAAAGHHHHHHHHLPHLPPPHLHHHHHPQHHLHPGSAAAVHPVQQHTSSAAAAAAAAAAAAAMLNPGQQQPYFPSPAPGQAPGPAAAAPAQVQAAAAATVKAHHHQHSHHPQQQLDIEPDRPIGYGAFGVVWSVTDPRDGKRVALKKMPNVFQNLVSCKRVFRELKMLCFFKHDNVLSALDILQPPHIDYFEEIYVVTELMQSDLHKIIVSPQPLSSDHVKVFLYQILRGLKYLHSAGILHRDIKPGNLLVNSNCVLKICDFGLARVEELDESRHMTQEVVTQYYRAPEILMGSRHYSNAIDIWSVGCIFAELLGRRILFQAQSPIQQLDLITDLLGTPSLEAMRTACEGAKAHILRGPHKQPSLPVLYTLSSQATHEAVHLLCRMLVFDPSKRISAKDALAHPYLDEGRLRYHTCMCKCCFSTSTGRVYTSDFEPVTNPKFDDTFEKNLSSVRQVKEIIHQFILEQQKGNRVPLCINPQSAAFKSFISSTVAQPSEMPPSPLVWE

Variants of B1 are the subject of the first experiment. The settings on record: with tri23_human TRIM23, P36406.
Turning to A463P, the “effect of a mutation on the interaction” value is listed as “disrupting interaction strength”.
The same measure, in the same setting: the value for F249L was “with no effect”.

Another experiment covers variants of B2. The settings on record: with nlk_human NLK.
Regarding A9D, the “effect of a mutation on the interaction” value was “disrupting interaction strength”.
On the same count and under the same terms, then P451L, with “disrupting interaction strength”.
On the same count and under the same terms, then R432C, with “disrupting interaction strength”.
